Target: iLID-YFP-SNAP (2×Strep-iLID-EYFP-SNAP)
Experiment: light-induced membrane recruitment in GUVs

mCherry-SspB(micro)
half-time of dissociation from the membrane in the dark: 61.2 s
half-time of dissociation in the dark: 41.8 s
